“And” between values parts separate entries of the source, which are not always exact repeats. Equal values may be shown once.
Experiments:
Format in all cases: biochemical
[1] = Monooxygenase activity on artemisinin (ART), total turnovers by HPLC after benzoyl chloride derivatization; details: 0.5 mM ART, 1 μM P450 variant; mol hydroxylation products/mol enzyme
Source text: Additional 5,000 FL#62-derived variants were produced by simultaneous active-site mutagenesis and subjected to high throughout fingerprinting as described in Example 2. From the acquired fingerprint data, 259 functionally diverse variants (i.e., with a unique fingerprint) were isolated according to the procedure described in Example 2 and combined with the previously isolated 261 variants (Example 2), to yield a collection of 520 functionally diverse, fingerprinted monooxygenases. […] The ART oxygenation activity of the training set P450s was characterized by LC-MS analysis of reactions with ART and each of these variants and quantified in terms of total turnovers (TTN). […] The fingerprints of the training set P450s (both ART-reactive and ART-unreactive) were then correlated with the measured ART activities (TTN values) by multiple linear regression (MLR) analysis, where ART activity is the dependent variable, Y, and the five components of their fingerprints (corresponding to the normalized activities on probes 1-5) are five independent variables (x1, x2, x3, x4, x5) potentially correlated with Y. This process yielded best-fit regression coefficients for the training set and a candidate fingerprint-based model (Y=0.44x1+0.52x2+0.44x3+0.72x4+0.47x5) predictive of ART-reactivity. […]

[2] = Fingerprinting: demethylation activity on methoxy probes 1-5, Purpald colorimetric assay; details: formaldehyde formation, FIG. 5A
Protocol: To test the viability of compounds I-5 as probes, the fatty acid hydroxylase CYP102A1 (SEQ ID NO 1) from Bacillus megaterium and […] engineered variants thereof (SEQ ID NO 3, SEQ ID NO 4, SEQ ID NO 5, SEQ ID NO 6, SEQ ID NO 8, SEQ ID NO 11, SEQ ID NO 12, SEQ ID NO 14, SEQ ID NO 15) were fingerprinted. […] Parallel reactions with 1-5 were carried out using these P450s in purified form and a NADPH cofactor regeneration system containing a […] (PTDH).
We investigated the utility of these probes for high-throughput profiling of a large library of engineered monooxygenase variants. […] The P450 libraries were expressed in 96-well plates (DH5a cells) and screened against probes 1-5 in parallel to acquire a fingerprint for each functional P450 variant occurring in these libraries. Reactions with the probes (1 mM, 60 min) were carried out using cell lysate in the presence of the phosphite/PTDH cofactor regeneration system, and probe activity was quantified based on absorbance at 550 nm after 60-min incubation with Purpald (30 mM). […] This example illustrates how probes of general formula II such as compound 1-5 could be used for fingerprinting a large library of monooxygenases in a high throughput manner.
Expression and Fingerprinting of P450 Libraries in 96-Well Plates. 96-deep well plates containing 400 μL LB medium (100 mg ampicillin L-1) per well were inoculated with single colonies from the P450 libraries. The total number of screened P450 variants was about 10,000. In each plate, 8 wells were inoculated with the parent enzyme FL#62. […] P450 demethylation activity on probe 1-5 was measured in parallel reactions with the aid of a Beckman Coulter Multimek 96 automated pipettor and a TECAN Infinity plate reader. […] After incubation for 1 hour at room temperature, plates were added with 50 μL 2 M NaOH containing 150 mM Purpald and the absorbance at 550 nm measured using the plate reader. The measured demethylation activity of each P450 variant on the five probes was then normalized to the activity of the parent enzyme FL#62 (SEQ ID NO 15) from the same plate. […]

[3] = Regio- and stereoselectivity (site-selectivity) of ART hydroxylation, product distribution by HPLC
Source text: Additional 5,000 FL#62-derived variants were produced by simultaneous active-site mutagenesis and subjected to high throughout fingerprinting as described in Example 2. From the acquired fingerprint data, 259 functionally diverse variants (i.e., with a unique fingerprint) were isolated according to the procedure described in Example 2 and combined with the previously isolated 261 variants (Example 2), to yield a collection of 520 functionally diverse, fingerprinted monooxygenases. From this pool, twenty monooxygenases were randomly isolated to serve as the training set for generating a fingerprint model predictive of ART-reactivity and ranking the members of the monooxygenase library according to this reactivity property, as schematically illustrated in FIG. 13. The ART oxygenation activity of the training set P450s was characterized by LC-MS analysis of reactions with ART and each of these variants and quantified in terms of total turnovers (TTN). […] The fingerprints of the training set P450s (both ART-reactive and ART-unreactive) were then correlated with the measured ART activities (TTN values) by multiple linear regression (MLR) analysis, where ART activity is the dependent variable, Y, and the five components of their fingerprints (corresponding to the normalized activities on probes 1-5) are five independent variables (x1, x2, x3, x4, x5) potentially correlated with Y. This process yielded best-fit regression coefficients for the training set and a candidate fingerprint-based model (Y=0.44x1+0.52x2+0.44x3+0.72x4+0.47x5) predictive of ART-reactivity. Using this model, the remaining P450s in the 520-member collection of fingerprinted P450s were ranked (from highest to lowest predicted ART-reactivity). The 50 top-ranking variants as well as the 20 bottom-ranking variants were then tested experimentally in order to validate the predictions.
Measurement of Monooxygenase Activity on Artemisinin (ART). These isolated ART hydroxylation products were used as standards to generate calibration curves for quantifying ART-hydroxylation activity of FL#62 and the other monooxygenases. This activity was measured as total turnovers via quantification of the hydroxylation products from enzymatic reactions via derivatization with benzoyl chloride followed by HPLC analysis. Briefly, after the enzymatic reaction (0.5 mM ART, 1 μM P450 variant (purified or in cell lysate); 2 μM […], 100 μM NADP^+, 50 mM phosphoric acid), the mixture was added with 9-fluorenone as internal standard (0.5 mM) and extracted with dicholoromethane (0.2 mL). After removing the solvent, the residue was added with 0.1 mL dichloromethane, benzoyl chloride (5 equiv.), and DMAP (10 equiv.) for 3 hours at room temperature. The derivatized products (benzoyl esters) were analyzed using an Agilent 1200 UPLC. Analytical condition: Agilent XDB-C18 column (1.8 um, 4.4×50 mm); UV wavelength: 230 nm; Solvent A: 1% trifluoroacetic acid in deionized H2O; Solvent B: 1% formic acid in acetonitrile. gradient condition: 0-1 min: 20% B; 1-8 mins: 20% B to 90% B; 8-10 mins: 90% B; […]: 90% B to 20% B; 10.3-11.3 min: 20% B. Flow rate: 0.8 mL/min. The area under the curve (AUC) corresponding to the ART hydroxylated products were normalized to the internal standard AUC and used to quantify these products using the calibration curves. Total turnover numbers were calculated from number of mol hydroxylation products/mol enzyme. […]

B1: FL#62: engineered variant of P450 monooxygenase CYP102A1, SEQ ID NO 15, parent of the libraries (protein)
chain: MTIKEMPQPKTFGELKNLPLLNTDKPVQALMKIADELGEIFKFEAPGRVTRYLSSQRLIKEACDESRFDKNLSQALKFARDSVGDGLATSWTHEKNWKKAHNILLPSFSQQAMKGYHAMMVDIAVQLVQKWERLNADEHIEVSEDMTRLTLDTIGLCGFNYRFNSFYRDQPHPFIISMVRTLDEVMNKLQRANPDDPVYDENKRQCQEDIKVMNDLVDKIIADRKARGEQSDDLLTQMLNGKDPETGEPLDDGNISYQIITFLIAGHETTSGLLSFALYFLVKNPHVLQKVAEEAARVLVDPVPSYKQVKQLKYVGMVLNEALRLWPTAPAFSLYAKEDTVLGGEYPLEKGDEVMVLIPQLHRDKTIWGDDVEEFRPERFENPSAIPQHAFKPFGNGQRACIGQQFALHEATLVLGMMLKHFDFEDHTNYELDIKETLTLKPEGFVVKAKSKKIPLGGIPSPSTEQSAKKVRKKAENAHNTPLLVLYGSNMGTAEGTARDLADIAMSKGFAPQVATLDSHAGNLPREGAVLIVTASYNGHPPDNAKQFVDWLDQASADEVKGVRYSVFGCGDKNWATTYQKVPAFIDETLAAKGAENIADRGEADASDDFEGTYEEWREHMWSDVAAYFNLDIENSEDNKSTLSLQFVDSAADMPLAKMHGAFSTNVVASKELQQPGSARSTRHLEIELPKEASYQEGDHLGVIPRNYEGIVNRVTARFGLDASQQIRLEAEEEKLAHLPLAKTVSVEELLQYVELQDPVTRTQLRAMAAKTVCPPHKVELEALLEKQAYKEQVLAKRLTMLELLEKYPACEMKFSEFIALLPSIRPRYYSISSSPRVDEKQASITVSVVSGEAWSGYGEYKGIASNYLAELQEGDTITCFISTPQSEFTLPKDPETPLIMVGPGTGVAPFRGFVQARKQLKEQGQSLGEAHLYFGCRSPHEDYLYQEELENAQSEGIITLHTAFSRMPNQPKTYVQHVMEQDGKKLIELLDQGAHFYICGDGSQMAPAVEATLMKSYADVHQVSEADARLWLQQLEEKGRYAKDVWAG
Which “total turnovers (TTN) for ART hydroxylation” value [1] does the source give for B1 here?
Its value is 340 TTN and 339 TTN.

What about the “probe activity on probes 1-5 (in words)” value [2] of the same molecule?
Its value is “high activity on all the probes”.

And the “selectivity for the desired site ((S)-C7 ART hydroxylation, regio- and stereoselectivity)” value [3]?
The value was 83%.

And the “C6a-hydroxy-ART, share in product ratio C7(S):C7(R):C6a” value ([3]; ART hydroxylation products)?
The value was 7.

And the “C7(R)-hydroxy-ART, share in product ratio C7(S):C7(R):C6a” value ([3]; ART hydroxylation products)?
Its value is 10.

What about the “C7(S)-hydroxy-ART, share in product ratio C7(S):C7(R):C6a” value ([3]; ART hydroxylation products) of the same molecule?
The value was 83.

What about the “site-selectivity value for (S)-C7 ART hydroxylation” value ([3]; fraction used for the fingerprint-site reactivity correlation) of the same molecule?
Its value is 0.83.

From US9273342B2, “Methods and systems for evaluating and predicting the reactivity of monooxygenase enzymes” (University of Rochester, priority 2011, dated 2016)
